Measurements from paper PMC6995612.

Target: Firefly Luciferase, heat-aggregated [luciferase: P08659]
Test: co-sedimentation; 1.5 μM ClpG-DWB with 2 μM aggregated Luciferase in buffer A (50 mM Tris pH 7.5, 50 mM KCl, 10 mM MgCl2, 2 mM DTT), 2 mM ATP, 25 °C, 10 min; 1 μM DnaK with 0.2 μM DnaJ added to selected reactions; centrifugation at 13,000 rpm, pellet washed once; SDS-PAGE, Coomassie, ImageJ; control without aggregated Luciferase

P. aeruginosa ClpGGI-E383A/E732A (enzyme)
fold reduction of binding on addition of DnaK (with DnaJ): 1.86 fold
